The data set concerns the molecule itself. Nature of the data set: SEC. A general note: SEC sorts molecules by how far they enter the pores of the column.

This is an account of results in publication PMC9462685 (Science Advances, 2022).

B1: Sr35^Δ20 (domain or fragment)
chain: GEITLEKKVRKGIESLITELKLMQAVLSKVSKVPADQLDEGVKIWAGNVKELSYQMEDIVDAFMVRVGDGGESTNPKNRVKKILKKVKKLFKNGKDLHRISAALEEVVLQAKQLAELRQRYEQEMRDTSANTSVDPRMMALYTDVTELVGIEETRDKLINMLTEGDDWSKHPLKTISIVGFGGLGKTTLAKAAYDKIKVQFDCGAFVSVSRNPEMKKVLKDILYGLDKVKYENIHNAARDEKYLIDDIIEFLNDKRYLIVIDDIWNEKAWELIKCAFSKKSPGSRLITTTRNVSVSEACCSSEDDIYRMEPLSNDVSRTLFCKRIFSQEEGCPQELLKVSEEILKKCGGVPLAIITIASLLANKGHIKAKDEWYALLSSIGHGLTKNRSLEQMKKILLFSYYDLPSYLKPCLLYLSIFPEDREIRRARLIWRWISEGFVYSEKQDISLYELGDSYFNELVNRSMIQPIGIDDEGKVKACRVHDMVLDLICSLSSEENFVTILDDPRRKMPNSESKVRRLSIQNSKIDVDTTRMEHMRSVTVFSDNVVGKVLDISRFKVLRVLDLEGCHVSDVGYVGNLLHLRYLGLKGTHVKDLPMEIGKLQFLLTLDLRGTKIEVLPWSVVQLRRLMCLYVDYGMKLPSGIGNLTFLEVLDDLGLSDVDLDFVKELGRLTKLRVLRLDFHGFDQSMGKALEESISNMYKLDSLDVFVNRGLINCLSEHWVPPPRLCRLAFPSKRSWFKTLPSWINPSSLPLLSYLDITLFEVRSEDIQLLGTLPALVYLEIWNYSVFEEAHEVEAPVLSSGAALFPCATECRFIGIGAVPSMFPQGAAPRLKRLWFTFPAKWISSENIGLGMRHLPSLQRVVVDVISEGASREEADEAEAALRAAAEDHPNRPILDIW
Take B1: the binding result is reported as “binds”.

B2: Sr35^R157A (receptor)
chain: MEIAMGAIGSLLPKLGELLIGEITLEKKVRKGIESLITELKLMQAVLSKVSKVPADQLDEGVKIWAGNVKELSYQMEDIVDAFMVRVGDGGESTNPKNRVKKILKKVKKLFKNGKDLHRISAALEEVVLQAKQLAELRQRYEQEMRDTSANTSVDPAMMALYTDVTELVGIEETRDKLINMLTEGDDWSKHPLKTISIVGFGGLGKTTLAKAAYDKIKVQFDCGAFVSVSRNPEMKKVLKDILYGLDKVKYENIHNAARDEKYLIDDIIEFLNDKRYLIVIDDIWNEKAWELIKCAFSKKSPGSRLITTTRNVSVSEACCSSEDDIYRMEPLSNDVSRTLFCKRIFSQEEGCPQELLKVSEEILKKCGGVPLAIITIASLLANKGHIKAKDEWYALLSSIGHGLTKNRSLEQMKKILLFSYYDLPSYLKPCLLYLSIFPEDREIRRARLIWRWISEGFVYSEKQDISLYELGDSYFNELVNRSMIQPIGIDDEGKVKACRVHDMVLDLICSLSSEENFVTILDDPRRKMPNSESKVRRLSIQNSKIDVDTTRMEHMRSVTVFSDNVVGKVLDISRFKVLRVLDLEGCHVSDVGYVGNLLHLRYLGLKGTHVKDLPMEIGKLQFLLTLDLRGTKIEVLPWSVVQLRRLMCLYVDYGMKLPSGIGNLTFLEVLDDLGLSDVDLDFVKELGRLTKLRVLRLDFHGFDQSMGKALEESISNMYKLDSLDVFVNRGLINCLSEHWVPPPRLCRLAFPSKRSWFKTLPSWINPSSLPLLSYLDITLFEVRSEDIQLLGTLPALVYLEIWNYSVFEEAHEVEAPVLSSGAALFPCATECRFIGIGAVPSMFPQGAAPRLKRLWFTFPAKWISSENIGLGMRHLPSLQRVVVDVISEGASREEADEAEAALRAAAEDHPNRPILDIW
On to B2, for which the binding result is reported as “binds”.
